Experiments:
[1] = target: Human DLL3 (human) (UniProt Q9NYJ7); experiment: cell-based or functional assay
[2] = target: CD3 (human); experiment: cell-based or functional assay

Chain of Human DLL3 (human) (Q9NYJ7 27-618 limits assumed): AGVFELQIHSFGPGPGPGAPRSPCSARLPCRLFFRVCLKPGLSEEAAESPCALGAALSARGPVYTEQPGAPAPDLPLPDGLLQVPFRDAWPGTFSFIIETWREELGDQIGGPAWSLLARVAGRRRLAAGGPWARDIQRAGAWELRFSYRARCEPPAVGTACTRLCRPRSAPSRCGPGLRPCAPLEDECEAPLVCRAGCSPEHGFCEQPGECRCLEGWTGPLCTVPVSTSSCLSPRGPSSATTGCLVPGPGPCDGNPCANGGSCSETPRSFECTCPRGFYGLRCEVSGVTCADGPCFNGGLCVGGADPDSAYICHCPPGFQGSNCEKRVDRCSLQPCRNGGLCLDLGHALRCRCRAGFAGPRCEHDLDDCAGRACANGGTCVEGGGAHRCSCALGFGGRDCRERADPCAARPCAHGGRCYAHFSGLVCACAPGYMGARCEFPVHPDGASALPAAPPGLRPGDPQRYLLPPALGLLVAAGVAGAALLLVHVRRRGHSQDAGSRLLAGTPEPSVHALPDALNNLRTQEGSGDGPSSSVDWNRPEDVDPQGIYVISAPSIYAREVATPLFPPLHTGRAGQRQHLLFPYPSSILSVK

EC90 of AMG 757-mediated CD69 upregulation [2]: 4.6 ng/mL
Substance: AMG 757 (bispecific antibody)
EC50 of AMG 757-mediated cell killing in SHP-77 cells [1]: 2.8 ng/mL
EC90 of AMG 757-mediated cell killing in SHP-77 cells [1]: 5.7 ng/mL
in vitro EC90 for AMG 757-mediated cell killing [1]: 5.2 ng/mL

Reference: US20230174643A1
